The data set concerns the molecule itself. Kind of data set: SEC. On the technique in general: Size exclusion chromatography separates by hydrodynamic size, large species first.

B1: YpTatB^22-220 (soluble cytoplasmic domain of Yersinia pseudotuberculosis TatB) (domain or fragment)
chain: PERLPVAVRTVSGWIRTLRSLAATVQNELAQELKLQELQDSLKKVEQAGLQNLTPELKASMDELKEAAEALKRSYHVDAGSEAPHTIHNPLVTEPEAIHDGVTPAEPATQVSALAQAPNILEAGTASVADSVVEAAPVTTVKSVVQGEVLVKSTPVQEVGLADVMDKPVTKQQIDTIDSHGTDLSSAGPSRIHQPGGDQ
Turning to B1, the “stoichiometry N” value is 3.

B2: TatB^22-171 (soluble membrane-extrinsic cytoplasmic domain of E. coli TatB) (domain or fragment)
chain: PQRLPVAVKTVAGWIRALRSLATTVQNELTQELKLQEFQDSLKKVEKASLTNLTPELKASMDELRQAAESMKRSYVANDPEKASDEAHTIHNPVVKDNEAAHEGVTPAAAQTQASSPEQKPETTPEPVVKPAADAEPKTAAPSPSSSDKP
Turning to B2, the “stoichiometry N” value was 4.

For orientation: stoichiometry N means the number of molecules, sites or subunits per partner or assembly.

For the origin of these results see article doi:10.1101/2020.05.11.089458 (bioRxiv, 2020).
